In patent US9051358B2, “Nonnatural collagen-like protein and use thereof” (ZHEJIANG UNIVERSITY, priority 2009, dated 2015):

Tests used:
[1] = Half-life of GLK/IFNα fusion proteins in SD rats; assay type: in vivo
Text: The structure characteristics and half-life in SD rats of the different GLK/IFNαs, which was constructed by fusion to different GLK, was compared in Table 5.

[2] = test system: 2′,5′-OAS; assay: Serum 2′,5′-OAS activity in rhesus monkeys after subcutaneous administration; assay type: in vivo
Protocol: Rhesus monkeys.(n=15; including female and male; age range: 3-4; weight range: 4.2-4.8 kg), were purchased from Animal Center of Chinese Academy of Military Medicine and divided into five groups (3 in each group). Samples were diluted with PBS, wherein rGLK1164/IFNα was diluted respectively to 0.36, 1.0 and 3.6 pmol/kg, IFNα (positive control) was diluted to 0.36 pmol/kg, and rGLK1164 (blank control) was diluted to 0.36 pmol/kg. The diluted samples were administered to rhesus monkeys subcutaneously and the serum samples were collected at 0, 1, 2, 4, 8, 10, 14 […] after injection respectively. The activity of 2′, 5′-OAS in serum was measured with 2′,5′-OAS radioimmunoassay kit (Eiken Chemical Co., Tokyo, Japan).

[3] = test system: erythropoiesis; assay: Erythropoiesis in normal mice, hemoglobin (Hb) content; assay type: in vivo, BALB/c mice; conditions: weekly subcutaneous administration
Protocol: rEPO/GLK1074 fusion protein was compared with standard rEPO (EPOGEN®, AMGEN Inc.) in erythropoiesis activity in mice. BALB/c mice (male, 6-8 weeks old, 18˜20 g/only) from the Shanghai Institute of animal testing center were used in the experiments. Grouping, injection, and tail vein blood samples collecting were performed according to the following table. Hemoglobin (Hb) content was determined by colorimetric.

In the case of “GLK302/IFNα: IFNα fused with GLK302, a repeated sequence of GGSGGS (SEQ ID NO: 16)”, the “Half-life” value [1] is reported as 14.4 h.

For IFNα [reference compound], the detectability in vivo [2] was “could hardly be detected 6 days later”.

For “rEPO: standard rEPO (EPOGEN®, AMGEN Inc.) [reference compound]”, the “erythropoiesis activity, Hb levels” value [3] was “significantly lower than rEPO/GLK1074”.
